Read-outs that look alike come from different tables or passages of the source. Blank lines part the entries; values can stand above or below the binder they belong to.
Key:
[1] = target: T1, HER3-His (UniProt P21860 21-643); assay: ELISA, coated His-tagged HER3 ECD, anti-human Fc-HRP
T1 construct: range 21-643; also called His-tagged HER3; second antigen

[2] = target: T1, HER3-His; assay: simultaneous binding ELISA: coated EGFR-Fc, Db titrated, HER3-His 300 nM added, anti-His-HRP
[3] = target: T2, EGFR-His (UniProt P00533 25-645); assay: ELISA, coated His-tagged EGFR ECD, anti-human Fc-HRP
T2 construct: range 25-645; also called His-tagged EGFR

[4] = target: T1, HER3-His; assay: simultaneous binding ELISA: coated EGFR-Fc, Db titrated, HER3-His 300 nM added, anti-His-HRP; remark: listed apart in the source
[5] = target: T3, HER3 (on tumor cells) (UniProt P21860 20-1342, limits assumed); assay: flow cytometry on HER3-positive MCF-7 cells
T3 construct: whole, on cells; also called HER3 on MCF-7, SKBR-3 (SKBR3) and FaDu cells

[6] = target: T4, EGFR-Fc fusion protein (UniProt P00533 25-645); assay: ELISA, coated EGFR-Fc, anti-human Fab-HRP
T4 construct: range 25-645; Coated antigen in ELISA; not shown: Fc part of the fusion, not described

[7] = target: T1, HER3-His; assay: simultaneous binding ELISA: coated EGFR-Fc, Db titrated, HER3-His 300 nM added, anti-His-HRP; remark: listed apart in the source
[8] = target: T5, HER3-Fc fusion protein (UniProt P21860 21-643); assay: ELISA, coated HER3-Fc, anti-human Fab-HRP
T5 construct: range 21-643; Coated antigen in ELISA; not shown: Fc part of the fusion, not described

[9] = target: T3, HER3 (on tumor cells); assay: flow cytometry on FaDu cells
[10] = target: T3, HER3 (on tumor cells); assay: flow cytometry on MCF-7 cells
[11] = target: T3, HER3 (on tumor cells); assay: flow cytometry on SKBR-3 cells
[12] = target: T3, HER3 (on tumor cells); assay: flow cytometry on SKBR-3 cells; remark: listed apart in the source
[13] = target: T3, HER3 (on tumor cells); assay: flow cytometry on MCF-7 cells; remark: listed apart in the source
[14] = target: T3, HER3 (on tumor cells); assay: flow cytometry on FaDu cells; remark: listed apart in the source
[15] = target: T3, HER3 (on tumor cells); assay: flow cytometry on HER3-positive MCF-7 cells; remark: listed apart in the source
[16] = target: T4, EGFR-Fc fusion protein; assay: ELISA, coated EGFR-Fc, anti-human Fab-HRP; remark: listed apart in the source
[17] = target: T5, HER3-Fc fusion protein; assay: ELISA, coated HER3-Fc, anti-human Fab-HRP; remark: listed apart in the source
[18] = target: T1, HER3-His; assay: simultaneous binding ELISA: coated EGFR-Fc, Db titrated, HER3-His 300 nM added, anti-His-HRP; remark: listed apart in the source

EC50 [1]: 340 pM
EC50 [2]: 1800 pM
EC50 [3]: 230 pM
EC50 [4]: 1900 pM
B1: Db3-43xhu225-MHD2-Fc (bispecific antibody)
heavy: EVQLVESGGGLVQPGGSLRLSCAASGFSLTNYGVHWVRQAPGKGLEWLGVIWSGGNTDYNTPFTSRFTISRDNSKNTLYLQMNSLRAEDTAVYYCARALTYYDYEFAYWGQGTTVTVSSGGGGSQAGLTQPPAVSVAPGQTASITCGRDNIGSRSVHWYQQKPGQAPVLVVYDDSDRPAGIPERFSGSNYENTATLTISRVEAGDEADYYCQVWGITSDHVVFGGGTKLTVLASAELPPKVSVFVPPRDGFFGNPRKSKLICQATGFSPRQIQVSWLREGKQVGSGVTTDQVQAEAKESGPTTYKVTSTLTIKESDWLGQSMFTCRVDHRGLTFQQNASSMCVPDDKTHTCPPCPAPPVAGPSVFLFPPKPKDTLMISRTPEVTCVVVDVSHEDPEVKFNWYVDGVEVHNAKTKPREEQYNSTYRVVSVLTVLHQDWLNGKEYKCKVSNKGLPSSIEKTISKAKGQPREPQVYTLPPSRDELTKNQVSLTCLVKGFYPSDIAVEWESNGQPENNYKTTPPVLDSDGSFFLYSKLTVDKSRWQQGNVFSCSVMHEALHNHYTQKSLSLSPGK
light: QVQLQQSGPGLVKPSQTLSLTCAISGDSVSSNRAAWNWIRQSPSRGLEWLGRTYYRSKWYNDYAQSLKSRITINPDTPKNQFSLQLNSVTPEDTAVYYCARDGQLGLDALDIWGQGTMVTVSSGGGGSDIQLTQSPSFLSASVGDRVTITCRASQSIGTNIHWYQQKPGKAPKLLIKYASESISGVPSRFSGSGSGTEFTLTISSLQPEDFATYYCQQNNNWPTTFGAGTKLEIKRTAELPPKVSVFVPPRDGFFGNPRKSKLICQATGFSPRQIQVSWLREGKQVGSGVTTDQVQAEAKESGPTTYKVTSTLTIKESDWLGQSMFTCRVDHRGLTFQQNASSMCVPD
notes: homodimeric Fc part

EC50 [5]: 1540 pM
EC50 [6]: 480 pM
EC50 [7]: 1300 pM
EC50 [8]: 1400 pM
B2: Db3M6xhu225-Ig (bispecific antibody, human IgG1, kappa)
heavy: EVQLVESGGGLVQPGGSLRLSCAASGFSLTNYGVHWVRQAPGKGLEWLGVIWSGGNTDYNTPFTSRFTISRDNSKNTLYLQMNSLRAEDTAVYYCARALTYYDYEFAYWGQGTTVTVSSGGGGSQSALTQPASVSGSPGQSITISCTGTSSDVGSYNVVSWYQQHPGKAPKLIIYEVSQRPSGVSNRFSGSKSGNTASLTISGLQTEDEADYYCSSYAGSSIFVIFGGGTKVTVLASTKGPSVFPLAPSSKSTSGGTAALGCLVKDYFPEPVTVSWNSGALTSGVHTFPAVLQSSGLYSLSSVVTVPSSSLGTQTYICNVNHKPSNTKVDKKVEPKSCDKTHTCPPCPAPPVAGPSVFLFPPKPKDTLMISRTPEVTCVVVDVSHEDPEVKFNWYVDGVEVHNAKTKPREEQYNSTYRVVSVLTVLHQDWLNGKEYKCKVSNKGLPSSIEKTISKAKGQPREPQVYTLPPSRDELTKNQVSLTCLVKGFYPSDIAVEWESNGQPENNYKTTPPVLDSDGSFFLYSKLTVDKSRWQQGNVFSCSVMHEALHNHYTQKSLSLSPGK
light: EVQLLESGGGLVQPGGSLRLSCAASGFTFSHYVMAWVRQAPGKGLEWVSSISSSGGWTLYADSVKGRFTISRDNSKNTLYLQMNSLRAEDTAVYYCTRGLKMATIFDYWGQGTLVTVSSGGGGSDIQLTQSPSFLSASVGDRVTITCRASQSIGTNIHWYQQKPGKAPKLLIKYASESISGVPSRFSGSGSGTEFTLTISSLQPEDFATYYCQQNNNWPTTFGAGTKLEIKRTVAAPSVFIFPPSDEQLKSGTASVVCLLNNFYPREAKVQWKVDNALQSGNSQESVTEQDSKDSTYSLSSTLTLSKADYEKHKVYACEVTHQGLSSPVTKSFNRGEC
notes: also called bispecific, tetravalent Diabody-Ig targeting EGFR (hu225) and HER3 (3M6); DbEGFRxHER3-Ig

The remaining lines, values behind:

B3: 3-43-IgG (antibody, V domains shown)
VH: QVQLQQSGPGLVKPSQTLSLTCAISGDSVSSNRAAWNWIRQSPSRGLEWLGRTYYRSKWYNDYAQSLKSRITINPDTPKNQFSLQLNSVTPEDTAVYYCARDGQLGLDALDIWGQGTMVTVSS
VL: QAGLTQPPAVSVAPGQTASITCGRDNIGSRSVHWYQQKPGQAPVLVVYDDSDRPAGIPERFSGSNYENTATLTISRVEAGDEADYYCQVWGITSDHVVFGGGTKLTVL
EC50 [9]: 3 pM
EC50 [10]: 21 pM
EC50 [11]: 22 pM

B4: 3M6-IgG (antibody, V domains shown)
VH: EVQLLESGGGLVQPGGSLRLSCAASGFTFSHYVMAWVRQAPGKGLEWVSSISSSGGWTLYADSVKGRFTISRDNSKNTLYLQMNSLRAEDTAVYYCTRGLKMATIFDYWGQGTLVTVSS
VL: QSALTQPASVSGSPGQSITISCTGTSSDVGSYNVVSWYQQHPGKAPKLIIYEVSQRPSGVSNRFSGSKSGNTASLTISGLQTEDEADYYCSSYAGSSIFVIFGGGTKVTVL
EC50 [12]: 440 pM
EC50 [13]: 1180 pM
EC50 [14]: 7500 pM
EC50 [8]: 700 pM

B5: Db3-43xhu225-Ig (bispecific antibody, human IgG1, kappa)
heavy: EVQLVESGGGLVQPGGSLRLSCAASGFSLTNYGVHWVRQAPGKGLEWLGVIWSGGNTDYNTPFTSRFTISRDNSKNTLYLQMNSLRAEDTAVYYCARALTYYDYEFAYWGQGTTVTVSSGGGGSQAGLTQPPAVSVAPGQTASITCGRDNIGSRSVHWYQQKPGQAPVLVVYDDSDRPAGIPERFSGSNYENTATLTISRVEAGDEADYYCQVWGITSDHVVFGGGTKLTVLASTKGPSVFPLAPSSKSTSGGTAALGCLVKDYFPEPVTVSWNSGALTSGVHTFPAVLQSSGLYSLSSVVTVPSSSLGTQTYICNVNHKPSNTKVDKKVEPKSCDKTHTCPPCPAPPVAGPSVFLFPPKPKDTLMISRTPEVTCVVVDVSHEDPEVKFNWYVDGVEVHNAKTKPREEQYNSTYRVVSVLTVLHQDWLNGKEYKCKVSNKGLPSSIEKTISKAKGQPREPQVYTLPPSRDELTKNQVSLTCLVKGFYPSDIAVEWESNGQPENNYKTTPPVLDSDGSFFLYSKLTVDKSRWQQGNVFSCSVMHEALHNHYTQKSLSLSPGK
light: QVQLQQSGPGLVKPSQTLSLTCAISGDSVSSNRAAWNWIRQSPSRGLEWLGRTYYRSKWYNDYAQSLKSRITINPDTPKNQFSLQLNSVTPEDTAVYYCARDGQLGLDALDIWGQGTMVTVSSGGGGSDIQLTQSPSFLSASVGDRVTITCRASQSIGTNIHWYQQKPGKAPKLLIKYASESISGVPSRFSGSGSGTEFTLTISSLQPEDFATYYCQQNNNWPTTFGAGTKLEIKRTVAAPSVFIFPPSDEQLKSGTASVVCLLNNFYPREAKVQWKVDNALQSGNSQESVTEQDSKDSTYSLSSTLTLSKADYEKHKVYACEVTHQGLSSPVTKSFNRGEC
notes: also called bispecific, tetravalent Diabody-Ig targeting EGFR (hu225) and HER3 (3-43) using CH1 and CL; DbEGFRxHER3-Ig
EC50 [15]: 54 pM
EC50 [16]: 430 pM
EC50 [17]: 340 pM
EC50 [18]: 850 pM
